According to patent publication US9617326B2, “RTRAIL mutant and monomethyl auristatin E conjugate thereof” (Zhejiang University, priority 2012, dated 2017):

Tested on: HEK293 cells
Test: In vitro killing/toxicity (CCK-8) on normal HEK293 cells
Type: cell-based
Conditions: 32-1000 ng/mL, 96 hours
Text: 4 types of cells were selected to measure in vitro anti-tumor activity of the rTRAIL mutant and the MMAE conjugate: TRAIL sensitive type (NCI-H460), TRAIL insensitive type (Hela), TRAIL resistant type (MCF-7) and normal cells (HEK293). All of these 4 types of cells had TRAIL death receptor on their surfaces.
Hereinafter, TRAIL sensitive type NCI-H460 cell was taken as an example to give detailed description of the test procedure, including the following steps:
(1) Digesting the NCI-H460 cells into individual cells, followed by diluting to 1×10^4 cells/mL, spreading the cells on 96-well plate (100 μL for each well), and culturing the cells for 24 hours under normal condition.
(2) Diluting N109C, N109C-vcMMAE and S96C-vcMMAE with culture medium respectively, and adding them into the cell plate with final concentrations of 32, 63, 125, 250, 500, 1000 ng/mL for serving as the test groups, while using standard TRAIL (114-281) as the positive control group, using the buffer (used for dissolving the test sample, diluted with the culture medium in a same manner) as the negative control group, and using the culture medium (without adding any solution) as the blank control group. All the control groups and test groups were tested in triplicate. […]

TRAIL (114-281): standard TRAIL (114-281) used as the positive control group
toxicity to normal cells: considerably low toxicity
